According to PMC4167861, “Mycobacterium tuberculosis Rho Is an NTPase with Distinct Kinetic Properties and a Novel RNA-Binding Subdomain” (PLoS ONE, 2014):

Biological target: the molecule itself
Experiment: cross-linking; 2 ug MtbRho, 0.05% glutaraldehyde, 5 and 10 min at 37 C in T-buffer (KCl instead of K-glutamate), no RNA or ATP; 3.5-8% gradient SDS-PAGE; cross-linked RNAP as marker of ~400 kDa

B1: Mycobacterium tuberculosis Rho (enzyme)
chain: MTDTDLITAGESTDGKPSDAAATDPPDLNADEPAGSLATMVLPELRALANRAGVKGTSGMRKNELIAAIEEIRRQANGAPAVDRSAQEHDKGDRPPSSEAPATQGEQTPTEQIDSQSQQVRPERRSATREAGPSGSGERAGTAADDTDNRQGGQQDAKTEERGTDAGGDQGGDQQASGGQQARGDEDGEARQGRRGRRFRDRRRRGERSGDGAEAELREDDVVQPVAGILDVLDNYAFVRTSGYLPGPHDVYVSMNMVRKNGMRRGDAVTGAVRVPKEGEQPNQRQKFNPLVRLDSINGGSVEDAKKRPEFGKLTPLYPNQRLRLETSTERLTTRVIDLIMPIGKGQRALIVSPPKAGKTTILQDIANAITRNNPECHLMVVLVDERPEEVTDMQRSVKGEVIASTFDRPPSDHTSVAELAIERAKRLVEQGKDVVVLLDSITRLGRAYNNASPASGRILSGGVDSTALYPPKRFLGAARNIEEGGSLTIIATAMVETGSTGDTVIFEEFKGTGNAELKLDRKIAERRVFPAVDVNPSGTRKDELLLSPDEFAIVHKLRRVLSGLDSHQAIDLLMSQLRKTKNNYEFLVQVSKTTPGSMDSD
notes: also called MtbRho; recombinant MtbRho
stoichiometry N: 6
